Data as given in US20250043022A1 (JIANGSU HENGRUI PHARMACEUTICALS, published 2025).
Numbering of substitutions follows the chain as printed.

B1: hu31H1L2 (antibody, human IgG1, kappa, V domains shown)
VH: EVQLVESGGGLVQPGGSLRLSCAASGFTFSDYYMAWVRQAPGKGLEWVASINYDGSSTYYLDSLKSRFTISRDNAKNSLYLQMNSLRAEDTAVYYCAGSDGYWAWFAYWGQGTLVTVSS
VL: DIQMTQSPSSLSASVGDRVTITCRASGNIHNYLAWYQQKPGKAPQLLVYNAETLADGVPSRFSGSGSGTDFTLTISSLQPEDFATYYCQHFWSTPPTFGGGTKVEIKR
B2: hu31H1L3 (antibody, human IgG1, kappa, V domains shown)
VH: B1 VH
VL: B1 VL with A43S, D70Q
B3: hu41H1L2 (antibody, human IgG1, kappa, V domains shown)
VH: EVQLVQSGAEVKKPGASVKVSCKASGYTFTSYGISWVRQAPGQGLEWMGEIFPRRGNTYYNEKFRGRVTMTTDKSTSTAYMELRSLRSDDTAVYYCARVFDGYYNYAMDYWGQGTTVTVSS
VL: DIQMTQSPSSLSASVGDRVTITCRASQDIGSSLNWLQQKPGKAIKRLIYATSSLDSGVPSRFSGSRSGTDYTLTISSLQPEDFATYYCLQYASSPYTFGGGTKVEIKR
B4: hu41H2L3 (antibody, human IgG1, kappa, V domains shown)
VH: B3 VH with M70L, T72A
VL: B3 VL with K42G, T69S
B5: hu41H2L1 (antibody, human IgG1, kappa, V domains shown)
VH: B3 VH with M70L, T72A
VL: B3 VL with I44P, Y71F
B6: hu41H1L1 (antibody, human IgG1, kappa, V domains shown)
VH: B3 VH
VL: B3 VL with I44P, Y71F
B7: hu41H1L3 (antibody, human IgG1, kappa, V domains shown)
VH: B3 VH
VL: B3 VL with K42G, T69S
B8: hu71H3L1 (antibody, human IgG1, kappa)
heavy: not shown
light: DIVMTQTPLSLPVTPGEPASISCRSSQSLVHSYGNTYLHWYLQKPGQSPQLLIYKVSNRFSGVPDRFSGSGSGTDFTLKISRVEAEDVGVYYCSQTTHVPWTFGGGTKVEIKRTVAAPSVFIFPPSDEQLKSGTASVVCLLNNFYPREAKVQWKVDNALQSGNSQESVTEQDSKDSTYSLSSTLTLSKADYEKHKVYACEVTHQGLSSPVTKSFNRGEC
B9: hu71H1L1 (antibody, human IgG1, kappa)
heavy: not shown
light: B8 light
B10: hu15H3L1 (antibody, human IgG1, kappa, V domains shown)
VH: EFQLVQSGAEVKKPGASVKVSCKASGYSFTDHNMNWVRQAPGQRLEWMGLINPNYGTADYNQKFKGRVTITVDQSASTAYMELSSLRSEDTAVYYCARGSSLFAYWGQGTLVTVSS
VL: DIQMTQSPSSLSASVGDRVTITCKASQGVDTAVAWYQQKPGKVPKLLIYWASTRHTGVPSRFSGSGSGTDFTLTISSLQPEDVATYYCQQYSRYPLTFGQGTKLEIKR
B11: hu15H2L1 (antibody, human IgG1, kappa, V domains shown)
VH: B10 VH with V72R, Q74T
VL: B10 VL
B12: hu15H2L2 (antibody, human IgG1, kappa, V domains shown)
VH: B10 VH with V72R, Q74T
VL: B10 VL with V43S, S60D
B13: hu15H5L2 (antibody, human IgG1, kappa, V domains shown)
VH: B10 VH with M48I, V68A, I70L, S77T
VL: B10 VL with V43S, S60D
B14: hu15H3L2 (antibody, human IgG1, kappa, V domains shown)
VH: B10 VH
VL: B10 VL with V43S, S60D
B15: hu15H1L2 (antibody, human IgG1, kappa, V domains shown)
VH: B10 VH with S28T, V72R, Q74T
VL: B10 VL with V43S, S60D
B16: hu15H1L1 (antibody, human IgG1, kappa, V domains shown)
VH: B10 VH with S28T, V72R, Q74T
VL: B10 VL
B17: hu15H5L1 (antibody, human IgG1, kappa, V domains shown)
VH: B10 VH with M48I, V68A, I70L, S77T
VL: B10 VL
B18: hu15H4L1 (antibody, human IgG1, kappa, V domains shown)
VH: B10 VH with I70L, S77T
VL: B10 VL
B19: hu50H1L1 (antibody, human IgG1, kappa)
heavy: not shown
light: DIVMTQSPLSLPVTPGEPASISCRSSQSILHSNGNTYLEWYLQKPGQSPQLLIYRVSNRFSGVPDRFSGSGSGTDFTLKISRVEAEDVGVYYCFQGLHVPPTFGQGTKLEIKRTVAAPSVFIFPPSDEQLKSGTASVVCLLNNFYPREAKVQWKVDNALQSGNSQESVTEQDSKDSTYSLSSTLTLSKADYEKHKVYACEVTHQGLSSPVTKSFNRGEC
B20: hu50H2L3 (antibody, human IgG1, kappa, V domains shown)
VH: EVQLVQSGAEVKKPGASVKVSCKASGFTFTNYGISWVRQAPGQGLEWMGEIYPRSGNTYYNTNFKGRVTLTADKSTSTAYMELRSLRSEDTAVYYCARNPFTTVVEGFAFWGQGTLVTVSS
VL: DIVMTQSPLSLPVTPGEPASISCRSSQSILHSYGNTYLEWYLQKPGQSPQLLIYRVSNRFSGVPDRFSGSGSGTDFTLKISRVEAEDVGVYYCFQGLHVPPTFGQGTKLEIKR
B21: hu50H1L3 (antibody, human IgG1, kappa, V domains shown)
VH: B20 VH with L70M, A72T
VL: B20 VL
B22: hu50H2L1 (antibody, human IgG1, kappa)
heavy: not shown
light: B19 light
B23: hu50H2L2 (antibody, human IgG1, kappa)
heavy: not shown
light: B19 light with I2V, V3F
B24: hu43H2L1 (antibody, human IgG1, kappa, V domains shown)
VH: EVQFVESGGGLVQPGGSLRLSCAASGFTFSNYWMNWVRQAPGKGLEWVAQVRLKSDNYATHYAESVKGRFTISREDAKNSAYLQMNSLRAEDTAVYYCSENYYGPAGPFDFWGQGTTVTVSS
VL: DIQMTQSPSSVSASVGDRVTITCKASQNVHTSVAWYQQKPGKSPKLLIYSASNRYSGVPSRFSGSGSGTDFTLTISSLQPEDFATYYCQQYSSYPLTFGQGTKLEIKR
B25: hu46H3L2 (antibody, human IgG1, kappa, V domains shown)
VH: EVQLVESGGGLVKPGGSLRLSCAASGFTFSNYGMSWVRQAPGKGIKWVSTIGSGGGYTYYSDSVKGRFTISRDNAKNSLYLQMNSLRAEDTAVYYCVRHPQIGYWGQGTLVTVSS
VL: DIQMTQSPSSLSASVGDRVTITCKASQSVGTAVAWYQQKPGKAPKLLIYSASSRYTGVPSRFSGSGSGTDFTLTISSLQPEDFADYFCHQYSSYPLTFGGGTKVEIKR
B26: hu43H1L1 (antibody, human IgG1, kappa, V domains shown)
VH: B24 VH with E75D, D76N
VL: B24 VL
B27: hu46H3L1 (antibody, human IgG1, kappa, V domains shown)
VH: B25 VH
VL: B25 VL with D85T, F87Y
B28: hu46H4L2 (antibody, human IgG1, kappa, V domains shown)
VH: B25 VH with S49A
VL: B25 VL
B29: hu46H1L1 (antibody, human IgG1, kappa, V domains shown)
VH: B25 VH with I45L, K46E, V97A
VL: B25 VL with D85T, F87Y
B30: hu46H2L1 (antibody, human IgG1, kappa, V domains shown)
VH: B25 VH with I45L, K46E
VL: B25 VL with D85T, F87Y
B31: hu46H1L3 (antibody, human IgG1, kappa, V domains shown)
VH: B25 VH with I45L, K46E, V97A
VL: B25 VL with S60D
B32: hu46H2L3 (antibody, human IgG1, kappa, V domains shown)
VH: B25 VH with I45L, K46E
VL: B25 VL with S60D
B33: hu46H1L2 (antibody, human IgG1, kappa, V domains shown)
VH: B25 VH with I45L, K46E, V97A
VL: B25 VL
B34: hu43H3L1 (antibody, human IgG1, kappa, V domains shown)
VH: B24 VH with V37L
VL: B24 VL
B35: hu46H3L3 (antibody, human IgG1, kappa, V domains shown)
VH: B25 VH
VL: B25 VL with S60D
B36: hu46H4L1 (antibody, human IgG1, kappa, V domains shown)
VH: B25 VH with S49A
VL: B25 VL with D85T, F87Y

Target: T1, human PSMA on cells (Cho-hPSMA, CHO-K1 cells overexpressing full-length human PSMA) (human, UniProt Q04609 1-750)
T1 construct: whole, on cells; also called cell surface PSMA; PSMA-expressing Lncap cells
Experiment: cell ELISA (OD450), Cho-hPSMA cells
Protocol: Experiment 2: Cells were cultured and inoculated onto a cell plate using the same method as in Experiment 1. The antibodies were serially diluted, and the antibody solutions were added to the cell plate at 100 μL/well. The plate was incubated at 4° C. for 1 h and then washed. An HRP-Goat Anti-human IgG (H+L) secondary antibody dilution (1:8000) was added to the cell plate at 100 μL/well, and the plate was incubated at 4° C. for 1 h and then washed by centrifugation. After color development with TMB, the reaction was stopped with 0.1 M sulfuric acid, and OD450 values were measured.

T1 sequence (Q04609 whole entry): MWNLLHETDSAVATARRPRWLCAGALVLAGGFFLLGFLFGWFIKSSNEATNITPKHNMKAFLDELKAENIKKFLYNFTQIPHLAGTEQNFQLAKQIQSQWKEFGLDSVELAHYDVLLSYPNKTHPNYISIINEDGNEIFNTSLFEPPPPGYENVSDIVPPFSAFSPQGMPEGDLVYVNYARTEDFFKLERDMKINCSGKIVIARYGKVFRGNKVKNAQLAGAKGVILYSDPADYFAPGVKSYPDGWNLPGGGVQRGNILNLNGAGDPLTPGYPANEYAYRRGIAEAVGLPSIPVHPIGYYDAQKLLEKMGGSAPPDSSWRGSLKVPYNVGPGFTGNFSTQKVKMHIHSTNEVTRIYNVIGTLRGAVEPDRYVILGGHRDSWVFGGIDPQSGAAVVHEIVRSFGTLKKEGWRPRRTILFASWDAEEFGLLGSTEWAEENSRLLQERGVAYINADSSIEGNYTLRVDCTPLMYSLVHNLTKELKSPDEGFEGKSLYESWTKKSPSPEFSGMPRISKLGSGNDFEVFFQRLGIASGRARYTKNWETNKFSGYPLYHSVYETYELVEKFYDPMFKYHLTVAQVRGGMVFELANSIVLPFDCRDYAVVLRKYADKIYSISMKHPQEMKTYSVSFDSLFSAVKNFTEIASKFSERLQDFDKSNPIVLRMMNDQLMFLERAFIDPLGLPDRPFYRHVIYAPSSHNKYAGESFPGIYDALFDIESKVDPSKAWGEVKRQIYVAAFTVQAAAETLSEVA

EC50 | Binder
0.12 µg/mL | B1
0.124 µg/mL | B2
0.982 µg/mL | B3
1.21 µg/mL | B4
1.22 µg/mL | B5
1.08 µg/mL | B6
0.985 µg/mL | B7
0.086 µg/mL | B8
0.12 µg/mL | B9
0.0731 µg/mL | B10
0.0871 µg/mL | B11
0.0874 µg/mL | B12
0.0818 µg/mL | B13
0.0821 µg/mL | B14
0.075 µg/mL | B15
0.0683 µg/mL | B16
0.0847 µg/mL | B17
0.069 µg/mL | B18

EC50 | Binder
0.0679 µg/mL | B19
0.104 µg/mL | B20
0.108 µg/mL | B21
0.0487 µg/mL | B22
0.0477 µg/mL | B23
6.17 µg/mL | B24
0.0617 µg/mL | B25
6.22 µg/mL | B26
0.0597 µg/mL | B27
0.079 µg/mL | B28
0.136 µg/mL | B29
0.0788 µg/mL | B30
0.123 µg/mL | B31
0.0805 µg/mL | B32
0.0813 µg/mL | B33
2.83 µg/mL | B34
0.0912 µg/mL | B35
0.0843 µg/mL | B36
